Read-outs that look alike come from different tables or passages of the source. Numbered stars: 1 amine (or outer) side, 2 acyl side, 3 side chain; on linkers, the order of the positions; unused ones are H or OH. Square brackets hold non-standard residues; d marks the D form. Side chains are listed from the residue outwards. Peptide text beside a SMILES is read from it. * marks the point of attachment. X1 = N[C@@H](CN*)C(=O)N[C@@H](CC(=O)O)C(=O)N[C@@H](CS)C(=O)O; γGlu = O=C(O)[C@H](CCC(=O)[*:2])N[*:1]; PEG6 = NCCOCCOCCOCCOCCOCCOCCC(=O)O; Dap = NC[C@H](N)C(=O)O; Aoc = NCCCCCCCC(=O)O; CO = O=C([*:1])[*:2]
Legend:
LNCaP tumor xenografts = assay type: in vivo, athymic nu/nu mice; conditions: for tumor-specific accumulation by whole-body radioimaging: 4 h after ip injection; for accumulation in PSMA-positive tumors by γ-counting (in words): tissue biodistribution, 4 h; for Tumor:Tissue blood / Tumor:Tissue heart / Tumor:Tissue liver / Tumor:Tissue lung / Tumor:Tissue muscle / Tumor:Tissue skin / Tumor:Tissue spleen: mouse, in vivo, ip
[1] = biological target: PSMA (PSMA-expressing LNCaP cells) (Homo sapiens, UniProt Q04609); test: LNCaP cell binding study; conditions: for affinity for PSMA / LNCaP cells (in words): LNCaP cells in culture; for Kd: PSMA-positive LNCaP cells in culture, 1 h at 37 °C; for competitive inhibition of binding by excess PMPA: LNCaP cells, 100-fold excess PMPA
PSMA (PSMA-expressing LNCaP cells), sequence (Q04609 whole entry): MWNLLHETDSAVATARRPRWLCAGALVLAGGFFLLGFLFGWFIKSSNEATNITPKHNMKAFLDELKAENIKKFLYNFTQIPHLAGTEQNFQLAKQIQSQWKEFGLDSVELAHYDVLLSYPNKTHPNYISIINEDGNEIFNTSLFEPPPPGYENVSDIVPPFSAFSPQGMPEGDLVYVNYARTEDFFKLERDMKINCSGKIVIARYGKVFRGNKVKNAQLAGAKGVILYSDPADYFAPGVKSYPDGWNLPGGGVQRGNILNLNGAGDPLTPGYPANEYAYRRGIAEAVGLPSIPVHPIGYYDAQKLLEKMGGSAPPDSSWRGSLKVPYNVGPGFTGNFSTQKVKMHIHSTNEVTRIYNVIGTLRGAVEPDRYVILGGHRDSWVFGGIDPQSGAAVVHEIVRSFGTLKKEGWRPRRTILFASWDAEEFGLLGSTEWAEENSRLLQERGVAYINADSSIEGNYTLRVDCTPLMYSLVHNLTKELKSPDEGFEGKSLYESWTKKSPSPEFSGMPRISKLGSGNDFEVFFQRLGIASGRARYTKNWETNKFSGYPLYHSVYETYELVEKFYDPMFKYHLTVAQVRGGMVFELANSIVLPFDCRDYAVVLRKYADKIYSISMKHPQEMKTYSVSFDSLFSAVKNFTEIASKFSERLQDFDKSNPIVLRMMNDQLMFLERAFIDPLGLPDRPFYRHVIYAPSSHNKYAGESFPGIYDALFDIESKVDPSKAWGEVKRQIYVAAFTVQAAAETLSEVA

[2] = assay type: in vivo, athymic nu/nu mice; conditions: mouse, ip
[3] = system: PSMA-negative human tumor xenografts; conditions: two PSMA-negative human tumor xenografts; cited from earlier work
[4] = male, athymic nu/nu, in vivo, 67 nmol, total radioactivity, tumor uptake, average % ID/g tissue

Row | Compound | tumor-specific accumulation by whole-body radioimaging (LNCaP tumor xenografts; radioimaging) | accumulation in PSMA-positive tumors by γ-counting (in words) (LNCaP tumor xenografts) | affinity for PSMA / LNCaP cells (in words) [1] | Kd [1] | Tumor:Tissue blood (LNCaP tumor xenografts) | Tumor:Tissue heart (LNCaP tumor xenografts) | Tumor:Tissue liver (LNCaP tumor xenografts) | Tumor:Tissue lung (LNCaP tumor xenografts) | Tumor:Tissue muscle (LNCaP tumor xenografts) | Tumor:Tissue skin (LNCaP tumor xenografts) | Tumor:Tissue spleen (LNCaP tumor xenografts) | tissue uptake at 4 h [2, 4] | tissue uptake at 4 h ([2]; in vivo, % ID/g kidney) | competitive inhibition of binding by excess PMPA [1] | uptake in PSMA-negative tumors [3] | LNCaP tumor uptake with coinjection of excess PMPA (LNCaP tumor xenografts; competition with 100-fold excess PMPA, radioimaging) | tissue uptake at 4 h ([2]; kidney, 67 nmol, % ID/g kidney, kidney, 4 h after ip injection) | internalization by LNCaP cells ([1]; 1 h at 4 °C vs 37 °C)
1 | N[C@@H](CNC(=O)CC[C@H](NC(=O)N[C@@H](CCC(=O)O)C(=O)O)C(=O)O)C(=O)N[C@@H](CC(=O)O)C(=O)N[C@@H](CS)C(=O)O [compound 3] (H-[Dap]([γGlu-CO-Glu])-Asp-Cys-OH) | not observed | did not accumulate | weak affinity | 0.176 µM |  |  |  |  |  |  |  |  |  |  |  |  |  | 
2 | N[C@@H](CNC(=O)[C@H](Cc1ccccc1)NC(=O)[C@H](CCC(=O)O)NC(=O)CC[C@H](NC(=O)N[C@@H](CCC(=O)O)C(=O)O)C(=O)O)C(=O)N[C@@H](CC(=O)O)C(=O)N[C@@H](CS)C(=O)O [compound 4] (H-[Dap]([Phe-Glu-γGlu-CO-Glu])-Asp-Cys-OH) | accumulated predominantly in the PSMA-positive LNCaP tumors |  | somewhat lower affinities | 0.06 µM | 91.7 | 112.2 | 62.9 | 101.8 | 115.1 | 92.3 | 66.7 | 9.8 ± 2.4 %ID/g | 3.4 %ID/g | nearly quantitative competition |  |  |  | 
3 | N[C@@H](CNC(=O)[C@H](Cc1ccccc1)NC(=O)[C@H](Cc1ccccc1)NC(=O)CCCCCCCNC(=O)CC[C@H](NC(=O)N[C@@H](CCC(=O)O)C(=O)O)C(=O)O)C(=O)N[C@@H](CC(=O)O)C(=O)N[C@@H](CS)C(=O)O [compound 5] (H-[Dap]([Phe-Phe-Aoc-γGlu-CO-Glu])-Asp-Cys-OH) | accumulated predominantly in the PSMA-positive LNCaP tumors |  | most avid interaction | 0.0138 ± 0.0039 µM | 36.4 | 80.9 | 20.2 | 35.2 | 78.9 | 30.7 | 18.4 | 9.8 ± 2.4 %ID/g |  | nearly quantitative competition | no uptake | eliminated LNCaP tumor uptake | 37.8 %ID/g | internalization of the DUPA conjugate at physiological temperature
4 | N[C@@H](CNC(=O)[C@H](CCC(=O)O)NC(=O)[C@H](Cc1ccccc1)NC(=O)CCCCCCCNC(=O)CC[C@H](NC(=O)N[C@@H](CCC(=O)O)C(=O)O)C(=O)O)C(=O)N[C@@H](CC(=O)O)C(=O)N[C@@H](CS)C(=O)O [compound 6] (H-[Dap]([Glu-Phe-Aoc-γGlu-CO-Glu])-Asp-Cys-OH) | accumulated predominantly in the PSMA-positive LNCaP tumors |  | somewhat lower affinities | 0.031 µM | 51.4 | 93.3 | 11.6 | 18.9 | 74.2 | 28.7 | 4.5 | 9.8 ± 2.4 %ID/g | 42.9 %ID/g | nearly quantitative competition |  |  |  | 
5 | N[C@@H](CNC(=O)[C@H](Cc1ccccc1)NC(=O)[C@H](Cc1ccccc1)NC(=O)CNC(=O)[C@H](CCC(=O)O)NC(=O)[C@H](Cc1ccccc1)NC(=O)CC[C@H](NC(=O)N[C@@H](CCC(=O)O)C(=O)O)C(=O)O)C(=O)N[C@@H](CC(=O)O)C(=O)N[C@@H](CS)C(=O)O [compound 7] ({Glu-CO-γGlu}-FEGFF-X1) | accumulated predominantly in the PSMA-positive LNCaP tumors |  |  |  |  |  |  |  |  |  |  |  |  |  |  |  |  | 
6 | N[C@@H](CNC(=O)[C@H](Cc1ccccc1)NC(=O)CCOCCOCCOCCOCCOCCOCCNC(=O)CC[C@H](NC(=O)N[C@@H](CCC(=O)O)C(=O)O)C(=O)O)C(=O)N[C@@H](CC(=O)O)C(=O)N[C@@H](CS)C(=O)O [compound 8] (H-[Dap]([Phe-PEG6-γGlu-CO-Glu])-Asp-Cys-OH) | not observed | did not accumulate | weak affinity | 0.338 µM |  |  |  |  |  |  |  |  |  |  |  |  |  | 

— publication PMC9190123 (Molecular pharmaceutics, 2009)
